Reference: patent publication US20120316071A1 (published 2012)
Each block holds one binder with its values, some of them ahead of it.

Experiments:
[1] = target: T1, Recombinant Human DLL4 (R&D Systems Cat#1506-D4/CF) (human, UniProt Q9NR61 27-524); assay: ELISA, Fab on plate-coated DLL4, absorbance at 450 nm
T1 construct: also called rHuman DLL4; delta-like protein 4

[2] = target: T1, Recombinant Human DLL4 (R&D Systems …); assay: ECL (MSD) multispot binding assay, Fab on immobilized recombinant human DLL4
[3] = target: T2, Recombinant Human DLL4 (delta-like protein 4) (human, UniProt Q9NR61 27-524); assay: ECL (MSD) binding assay, Fab on immobilized DLL4
T2 construct: Bought recombinant human DLL4 (R&D Systems Cat#1506-D4/CF); also called rHuman DLL4; Delta-like 4

[4] = target: T2, Recombinant Human DLL4 (delta-like …); assay: ELISA, Fab on plate-coated DLL4
[5] = target: T3, Recombinant Human DLL4 (delta-like protein 4) (human, UniProt Q9NR61 27-524); assay: ECL (MSD) binding assay, Fab on immobilised recombinant human DLL4
T3 construct: also called rHuman DLL4; Delta-like 4

[6] = target: T3, Recombinant Human DLL4 (delta-like …); assay: ELISA, Fab on coated DLL4, absorbance at 450 nm
[7] = target: T3, Recombinant Human DLL4 (delta-like …); assay: ELISA on coated DLL4, Fab at 3.125 nM (2-fold serial dilution)
[8] = target: T3, Recombinant Human DLL4 (delta-like …); assay: ELISA on coated DLL4, Fab at 25 nM (2-fold serial dilution)
[9] = target: T3, Recombinant Human DLL4 (delta-like …); assay: ELISA on coated DLL4, Fab at 6.25 nM (2-fold serial dilution)
[10] = target: T3, Recombinant Human DLL4 (delta-like …); assay: ELISA on coated DLL4, Fab at 50 nM (2-fold serial dilution)
[11] = target: T3, Recombinant Human DLL4 (delta-like …); assay: ELISA on coated DLL4, Fab at 100 nM (2-fold serial dilution)
[12] = target: T3, Recombinant Human DLL4 (delta-like …); assay: ELISA on coated DLL4, Fab at 12.5 nM (2-fold serial dilution)
[13] = target: T4, rHuman P-Cadherin/Fc Chimera, CF (R&D Systems Cat#861-PC) (human, UniProt P22223 108-654); assay: ECL (MSD) multispot binding assay, antigen spotted on plate, 20 nM Fab;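 further: purified Fab incubated 1 h at 20 °C on antigen-spotted plate, bound Fab revealed with TAG detection antibody, ECL read, antigen signal divided by same-well blank, ratio ≥4 counted as hit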
T4 construct: Bought recombinant protein; Fc part of the bought chimera not given

[14] = target: T5, rHuman IGF-1 sR, (IGF-1 sR), CF (R&D Systems Cat#391-GR) (human, UniProt P08069 31-932); assay: as above
T5 construct: Bought recombinant soluble receptor; also called insulin-like growth factor-1 soluble receptor

[15] = target: T6, rHuman CD44/Fc Chimera, CF (R&D Systems Cat#3660-CD) (human, UniProt P16070 21-220); assay: as above
T6 construct: Bought recombinant protein; Fc part of the bought chimera not given

[16] = target: T7, Recombinant Human DLL4 (R&D Systems Cat#1506-D4/CF) (human, UniProt Q9NR61 27-524); assay: as above
T7 construct: Bought recombinant protein; also called delta-like protein 4; rHuman DLL4

[17] = target: T8, rHuman ErbB2/Fc Chimera, CF (R&D Systems Cat#1129-ER) (human, UniProt P04626 23-652); assay: as above
T8 construct: Bought recombinant protein; also called human epidermal growth factor 2 receptor; Fc part of the bought chimera not given

[18] = target: T9, rHuman HGF R/c-MET/Fc Chimera, CF (R&D Systems Cat#358-MT/CF) (human, UniProt P08581 25-932); assay: as above
T9 construct: Bought recombinant protein; also called HGF R/Fc; hepatocyte growth factor receptor; Fc part of the bought chimera not given
T9 sequence (P08581 25-932, change not shown): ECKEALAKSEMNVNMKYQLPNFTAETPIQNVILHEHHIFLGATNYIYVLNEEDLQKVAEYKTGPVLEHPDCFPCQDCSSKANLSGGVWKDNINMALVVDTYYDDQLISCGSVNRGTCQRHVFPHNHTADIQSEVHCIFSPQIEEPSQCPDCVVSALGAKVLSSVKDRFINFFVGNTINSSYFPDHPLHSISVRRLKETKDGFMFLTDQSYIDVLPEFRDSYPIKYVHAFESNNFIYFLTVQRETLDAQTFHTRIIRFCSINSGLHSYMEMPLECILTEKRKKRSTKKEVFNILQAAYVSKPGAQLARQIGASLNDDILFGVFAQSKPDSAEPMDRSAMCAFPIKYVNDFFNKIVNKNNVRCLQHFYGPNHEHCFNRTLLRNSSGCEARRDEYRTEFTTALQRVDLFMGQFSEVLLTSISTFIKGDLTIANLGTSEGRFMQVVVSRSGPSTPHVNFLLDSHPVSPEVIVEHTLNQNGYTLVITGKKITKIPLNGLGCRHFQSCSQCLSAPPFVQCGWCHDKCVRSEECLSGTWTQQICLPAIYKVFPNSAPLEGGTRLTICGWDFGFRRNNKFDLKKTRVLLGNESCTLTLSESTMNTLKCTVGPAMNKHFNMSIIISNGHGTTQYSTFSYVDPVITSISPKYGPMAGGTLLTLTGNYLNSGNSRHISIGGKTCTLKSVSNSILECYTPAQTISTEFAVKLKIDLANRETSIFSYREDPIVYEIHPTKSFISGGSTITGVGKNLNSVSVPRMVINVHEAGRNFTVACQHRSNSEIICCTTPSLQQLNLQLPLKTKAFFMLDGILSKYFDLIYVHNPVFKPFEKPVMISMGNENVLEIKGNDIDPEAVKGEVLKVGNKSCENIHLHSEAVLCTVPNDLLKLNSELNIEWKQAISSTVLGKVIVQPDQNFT

[19] = target: T10, rHuman Erythropoietin R/Fc Chimera, CF (R&D Systems Cat#963-ER) (human, UniProt P19235 25-250); assay: as above
T10 construct: Bought recombinant protein; also called EPO R; EPO R/Fc; Fc part of the bought chimera not given
T10 sequence (looked up): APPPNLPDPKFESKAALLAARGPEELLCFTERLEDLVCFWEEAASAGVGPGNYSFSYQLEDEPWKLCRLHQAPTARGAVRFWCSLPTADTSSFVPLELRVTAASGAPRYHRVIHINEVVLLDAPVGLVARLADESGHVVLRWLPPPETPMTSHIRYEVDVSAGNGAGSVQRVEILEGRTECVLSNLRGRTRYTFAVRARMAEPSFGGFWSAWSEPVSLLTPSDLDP

[20] = target: T11, rHuman EGF R/Fc Chimera, CF (R&D Systems Cat#344-ER) (human, UniProt P00533 25-645); assay: as above
T11 construct: Bought recombinant protein; also called epidermal growth factor receptor; Fc part of the bought chimera not given

[21] = target: T12, rHuman Notch-1/Fc Chimera, CF (R&D Systems Cat#3647-TK) (human, UniProt P46531 19-526); assay: as above
T12 construct: Bought recombinant protein; Fc part of the bought chimera not given

ELISA (Signal-Noise) [1]: 0.02 | ECL Signal/Blank [2]: 40.9
B1: Fab VH5-51_IGHD5-18*01>3_IGHJ4*01 G100K/G104T I50A & V3-4_IGLJ1*01 (Fab, V domains shown)
VH: EVQLVQSGAEVKKPGESLKISCKGSGYSFTSYWIGWVRQMPGKGLEWMGAIYPGDSDTRYSPSFQGQVTISADKSISTAYLQWSSLKASDTAMYYCARRKYSYTYDYFDYWGQGTLVTVSS
VL: QTVVTQEPSFSVSPGGTVTLTCGLSSGSVSTSYYPSWYQQTPGQAPRTLIYSTNTRSSGVPDRFSGSILGNKAALTITGAQADDESDYYCVLYMGSGISYVFGTGTKVTVL
notes: Tested as Fab; CH1 with His6/Flag tags (plasmid A) and lambda CL (plasmid E) come from the expression vectors; also called KT I50A

ECL signal [3]: 64300 | ELISA signal [4]: 0.1
B2: Fab VH5-51_IGHD5-18*01>3_IGHJ4*01 G100K/G104T (KT) & V3-4_IGLJ1*01 S52C (Fab, V domains shown)
VH: EVQLVQSGAEVKKPGESLKISCKGSGYSFTSYWIGWVRQMPGKGLEWMGIIYPGDSDTRYSPSFQGQVTISADKSISTAYLQWSSLKASDTAMYYCARRKYSYTYDYFDYWGQGTLVTVSS
VL: QTVVTQEPSFSVSPGGTVTLTCGLSSGSVSTSYYPSWYQQTPGQAPRTLIYCTNTRSSGVPDRFSGSILGNKAALTITGAQADDESDYYCVLYMGSGISYVFGTGTKVTVL
notes: Tested as a Fab (VH-CH1 with His and Flag tags, lambda VL-CL); also called H:KT & L:S52C

ECL signal [5]: 87400 | ELISA signal [6]: 0.19
B3: Fab VH5-51_IGHD5-18*01>3_IGHJ4*01 G100K/G104T (KT) & V3-4_IGLJ1*01 R56D (Fab, V domains shown)
VH: EVQLVQSGAEVKKPGESLKISCKGSGYSFTSYWIGWVRQMPGKGLEWMGIIYPGDSDTRYSPSFQGQVTISADKSISTAYLQWSSLKASDTAMYYCARRKYSYTYDYFDYWGQGTLVTVSS
VL: QTVVTQEPSFSVSPGGTVTLTCGLSSGSVSTSYYPSWYQQTPGQAPRTLIYSTNTDSSGVPDRFSGSILGNKAALTITGAQADDESDYYCVLYMGSGISYVFGTGTKVTVL
notes: Fab; also called H:KT & L:R56D

ELISA (Signal-Noise) [1]: 0 | ECL Signal/Blank [2]: 57.7
B4: Fab VH5-51_IGHD5-18*01>3_IGHJ4*01 G100K/G104T P53A & V3-4_IGLJ1*01 (Fab, V domains shown)
VH: EVQLVQSGAEVKKPGESLKISCKGSGYSFTSYWIGWVRQMPGKGLEWMGIIYAGDSDTRYSPSFQGQVTISADKSISTAYLQWSSLKASDTAMYYCARRKYSYTYDYFDYWGQGTLVTVSS
VL: QTVVTQEPSFSVSPGGTVTLTCGLSSGSVSTSYYPSWYQQTPGQAPRTLIYSTNTRSSGVPDRFSGSILGNKAALTITGAQADDESDYYCVLYMGSGISYVFGTGTKVTVL
notes: Tested as Fab; CH1 with His6/Flag tags (plasmid A) and lambda CL (plasmid E) come from the expression vectors; also called KT P53A

ELISA (Signal-Noise) [1]: 0.01 | ECL Signal/Blank [2]: 30.6
B5: Fab VH5-51_IGHD5-18*01>3_IGHJ4*01 G100K/G104T I51A & V3-4_IGLJ1*01 (Fab, V domains shown)
VH: EVQLVQSGAEVKKPGESLKISCKGSGYSFTSYWIGWVRQMPGKGLEWMGIAYPGDSDTRYSPSFQGQVTISADKSISTAYLQWSSLKASDTAMYYCARRKYSYTYDYFDYWGQGTLVTVSS
VL: QTVVTQEPSFSVSPGGTVTLTCGLSSGSVSTSYYPSWYQQTPGQAPRTLIYSTNTRSSGVPDRFSGSILGNKAALTITGAQADDESDYYCVLYMGSGISYVFGTGTKVTVL
notes: Tested as Fab; CH1 with His6/Flag tags (plasmid A) and lambda CL (plasmid E) come from the expression vectors; also called KT I51A

ECL signal [3]: 85900 | ELISA signal [4]: 0.15
B6: Fab VH5-51_IGHD5-18*01>3_IGHJ4*01 G100K/G104T (KT) & V3-4_IGLJ1*01 S52R (Fab, V domains shown)
VH: EVQLVQSGAEVKKPGESLKISCKGSGYSFTSYWIGWVRQMPGKGLEWMGIIYPGDSDTRYSPSFQGQVTISADKSISTAYLQWSSLKASDTAMYYCARRKYSYTYDYFDYWGQGTLVTVSS
VL: QTVVTQEPSFSVSPGGTVTLTCGLSSGSVSTSYYPSWYQQTPGQAPRTLIYRTNTRSSGVPDRFSGSILGNKAALTITGAQADDESDYYCVLYMGSGISYVFGTGTKVTVL
notes: Tested as a Fab (VH-CH1 with His and Flag tags, lambda VL-CL); also called H:KT & L:S52R

ECL signal [5]: 83900 | ELISA signal [7]: 0.213 | ELISA signal [6]: 0.27 | ELISA signal [8]: 0.227 | ELISA signal [9]: 0.2 | ELISA signal [10]: 0.239 | ELISA signal [11]: 0.251 | ELISA signal [12]: 0.212
B7: Fab VH5-51_IGHD5-18*01>3_IGHJ4*01 G100K/G104T (KT) & V3-4_IGLJ1*01 R56A (Fab, V domains shown)
VH: EVQLVQSGAEVKKPGESLKISCKGSGYSFTSYWIGWVRQMPGKGLEWMGIIYPGDSDTRYSPSFQGQVTISADKSISTAYLQWSSLKASDTAMYYCARRKYSYTYDYFDYWGQGTLVTVSS
VL: QTVVTQEPSFSVSPGGTVTLTCGLSSGSVSTSYYPSWYQQTPGQAPRTLIYSTNTASSGVPDRFSGSILGNKAALTITGAQADDESDYYCVLYMGSGISYVFGTGTKVTVL
notes: Fab; also called H:KT & L:R56A

ECL signal [5]: 93700 | ELISA signal [6]: 0.19
B8: Fab VH5-51_IGHD5-18*01>3_IGHJ4*01 G100K/G104T (KT) & V3-4_IGLJ1*01 R56G (Fab, V domains shown)
VH: EVQLVQSGAEVKKPGESLKISCKGSGYSFTSYWIGWVRQMPGKGLEWMGIIYPGDSDTRYSPSFQGQVTISADKSISTAYLQWSSLKASDTAMYYCARRKYSYTYDYFDYWGQGTLVTVSS
VL: QTVVTQEPSFSVSPGGTVTLTCGLSSGSVSTSYYPSWYQQTPGQAPRTLIYSTNTGSSGVPDRFSGSILGNKAALTITGAQADDESDYYCVLYMGSGISYVFGTGTKVTVL
notes: Fab; also called H:KT & L:R56G

ECL signal [3]: 94300 | ELISA signal [4]: 0.13
B9: Fab VH5-51_IGHD5-18*01>3_IGHJ4*01 G100K/G104T (KT) & V3-4_IGLJ1*01 R56I (Fab, V domains shown)
VH: EVQLVQSGAEVKKPGESLKISCKGSGYSFTSYWIGWVRQMPGKGLEWMGIIYPGDSDTRYSPSFQGQVTISADKSISTAYLQWSSLKASDTAMYYCARRKYSYTYDYFDYWGQGTLVTVSS
VL: QTVVTQEPSFSVSPGGTVTLTCGLSSGSVSTSYYPSWYQQTPGQAPRTLIYSTNTISSGVPDRFSGSILGNKAALTITGAQADDESDYYCVLYMGSGISYVFGTGTKVTVL
notes: Tested as a Fab (VH-CH1 with His and Flag tags, lambda VL-CL); also called H:KT & L:R56I

ECL signal/blank ratio [13]: 0.8 | ECL signal/blank ratio [14]: 1.4 | ECL signal/blank ratio [15]: 1 | ECL signal/blank ratio [16]: 1.3 | ECL signal/blank ratio [17]: 1.3 | ECL signal/blank ratio [18]: 1 | ECL signal/blank ratio [19]: 2 | ECL signal/blank ratio [20]: 1.5 | ECL signal/blank ratio [21]: 1.6
B10: Fab VH3-23_IGHD2-21*01>3_IGHJ6*01 H100E/S108P/Y113G/Y110G & V2-13_IGLJ2*01 (Fab, V domains shown)
VH: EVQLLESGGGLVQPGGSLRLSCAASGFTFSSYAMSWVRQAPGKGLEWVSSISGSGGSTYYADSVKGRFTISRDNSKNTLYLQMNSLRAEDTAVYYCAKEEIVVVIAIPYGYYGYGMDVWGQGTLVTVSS
VL: SSELTQDPAVSVALGQTVRITCQGDSLRSYYASWYQQKPGQAPVLVIYGKNNRPSGIPDRFSGSSSGNTASLTITGAQAEDEADYYCNSRDSSGNHLVVFGGGTKLTVL
notes: Fab made in E. coli: VH joined to CH1 (with His and Flag tags, plasmid A) and VL to lambda CL (plasmid E); also called EPG Y110G

ECL signal/blank ratio [13]: 2.3 | ECL signal/blank ratio [14]: 1.4 | ECL signal/blank ratio [15]: 1.1 | ECL signal/blank ratio [16]: 1.5 | ECL signal/blank ratio [17]: 1.5 | ECL signal/blank ratio [18]: 2.2 | ECL signal/blank ratio [20]: 1.4 | ECL signal/blank ratio [21]: 1.5
B11: Fab VH3-23_IGHD2-21*01>3_IGHJ6*01 H100E/S108P/Y113G/Y111E & V2-13_IGLJ2*01 (Fab, V domains shown)
VH: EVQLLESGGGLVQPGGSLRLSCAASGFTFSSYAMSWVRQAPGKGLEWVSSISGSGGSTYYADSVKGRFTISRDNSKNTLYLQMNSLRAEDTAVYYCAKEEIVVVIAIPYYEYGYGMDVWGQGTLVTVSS
VL: SSELTQDPAVSVALGQTVRITCQGDSLRSYYASWYQQKPGQAPVLVIYGKNNRPSGIPDRFSGSSSGNTASLTITGAQAEDEADYYCNSRDSSGNHLVVFGGGTKLTVL
notes: Fab made in E. coli: VH joined to CH1 (with His and Flag tags, plasmid A) and VL to lambda CL (plasmid E); also called EPG Y111E
